# Source: patent US20230265185A1 (NATIONAL RESEARCH COUNCIL OF CANADA, published 2023)
# Where a chain is given by its changes, count along the chain named.
# T1: recombinant extracellular domain of the predominant human CD22-beta isoform (CD22-ECD) (human, UniProt P20273 20-687, CHO-expressed glycoprotein. Capture on an SA chip implies biotinylation, but the patent does not state it for SPR.)
# T1 construct: Expressed in CHO-3E7 cells, IMAC and SEC purified, monomeric fraction; Results say it was immobilized onto a CM5 dextran chip; also called human CD22-ECD; hCD22 ecto-domain
# T1 sequence: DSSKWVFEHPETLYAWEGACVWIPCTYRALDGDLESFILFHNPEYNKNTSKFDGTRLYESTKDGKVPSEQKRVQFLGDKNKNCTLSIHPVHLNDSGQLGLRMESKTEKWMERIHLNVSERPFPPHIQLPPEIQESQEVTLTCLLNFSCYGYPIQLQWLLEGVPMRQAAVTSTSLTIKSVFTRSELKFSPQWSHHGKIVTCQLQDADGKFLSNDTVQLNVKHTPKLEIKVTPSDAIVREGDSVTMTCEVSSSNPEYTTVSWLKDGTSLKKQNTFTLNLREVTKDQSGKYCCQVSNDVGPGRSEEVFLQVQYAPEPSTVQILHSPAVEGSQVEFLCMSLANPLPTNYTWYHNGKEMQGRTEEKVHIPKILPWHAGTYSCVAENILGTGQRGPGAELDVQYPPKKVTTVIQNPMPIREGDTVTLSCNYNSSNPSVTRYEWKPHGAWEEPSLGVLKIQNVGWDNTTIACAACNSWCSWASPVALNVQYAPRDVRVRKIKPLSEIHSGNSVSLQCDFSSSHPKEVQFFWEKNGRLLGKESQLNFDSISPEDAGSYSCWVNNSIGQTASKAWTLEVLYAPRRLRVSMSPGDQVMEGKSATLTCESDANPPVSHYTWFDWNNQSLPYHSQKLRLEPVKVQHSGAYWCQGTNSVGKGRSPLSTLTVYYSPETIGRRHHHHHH
# B1: hCD221ug-93 (VHH)
# VHH: QVKLEESGGGLVQAGGSLRLSCAASGSTFSSSVMNWYRQAPGKQRELVAVITSSGSTHYADSVKGRFTISRDNAKNTVNLQMNSLKPEDTAVYYCNAQYGRRSDWGQGTQVTVSS
# modifications: single biotin at the VHH C-terminal (biotinylation signal sequence)
# notes: llama VHH, expressed in E. coli TG1, IMAC purified, monomeric SEC fraction; also called VHH # 11
# B2: hCD221ug-74 (VHH)
# VHH: QVKLEESGGGLVQAGGSLRLSCAGSGFTFDDYAMGWFRQAPGKEREVVSCMGSSDGATYYADSVKGRFTISRDNAKNTVYLQMNSLKPEDTAIYYCAVDKPFYDGGYRYTCPVDFGSWGQGTQVTVSS
# modifications: single biotin at the VHH C-terminal (biotinylation signal sequence)
# notes: llama VHH, expressed in E. coli TG1, IMAC purified, monomeric SEC fraction; also called VHH # 3
# B3: hCD221ug-14 (VHH)
# VHH: QVKLEESGGGLVQAGGSLRLSCAVSGRIFRSYVLGWFRQAPGKERELVARIGWSDTYYADSVKGRFTISRDNAKNTVDLQMNSLKPEDTAVYYCAANSPPYGPQRDEFDYWGQGTQVTVSS
# modifications: single biotin at the VHH C-terminal (biotinylation signal sequence)
# notes: llama VHH, expressed in E. coli TG1, IMAC purified, monomeric SEC fraction; also called VHH # 16; 9-hCD22 1ug-14
# B4: hCD221ug-6 (VHH)
# VHH: QVQLVESGGGVVRPGDSLRLSCTVSGFTLDYYVMGWFRQAPGKEREVVSCISSSDGVTYYADSVKGRFTISRDNAKNTVYLQMNSLKPEDTAIYYCAVDKPFYDGGYYYTCPVDFDSWGQGTQVTVSS
# modifications: single biotin at the VHH C-terminal (biotinylation signal sequence)
# notes: llama VHH, expressed in E. coli TG1, IMAC purified, monomeric SEC fraction; also called VHH # 5
# B5: hCD22100ng-66 (VHH)
# VHH: B4 VHH with V11L, R13Q, D16G, T28S, V57A, A61P, N77K, S85A, Y107S, D116G
# modifications: single biotin at the VHH C-terminal (biotinylation signal sequence)
# notes: llama VHH, expressed in E. coli TG1, IMAC purified, monomeric SEC fraction; also called VHH # 4
# B6: hCD22pas-10 (VHH)
# VHH: B4 VHH with V11L, R13Q, L29S, V33A, V47A, K65R, Q82E, Y108L
# modifications: single biotin at the VHH C-terminal (biotinylation signal sequence)
# notes: llama VHH, expressed in E. coli TG1, IMAC purified, monomeric SEC fraction; also called VHH # 6
# B7: hCD22100ng-2 (VHH)
# VHH: QVKLEESGGGLVQPGGSLRLSCTVSGVTFDYYVMGWFRQAPGKEREVVSCMRNSDGVTYYADSVKGRFTISRDNAKNTVYLQMNSLKPDDTAIYYCAVDKPFYDGGNYYTCPVDFDSWGQGTQVTVSS
# modifications: single biotin at the VHH C-terminal (biotinylation signal sequence)
# notes: llama VHH, expressed in E. coli TG1, IMAC purified, monomeric SEC fraction; also called VHH # 2
# B8: hCD22pas-16 (VHH)
# VHH: QVQLVESGGGLVQAGGSLRLSCAASGSTFSLKAMAWYRQAPGKQRERVGVINSDGSYTTDAASVQGRFTISRDNAKNTVYLQMNSLKPEDTAVYYCNTMPPWPWGQGTQVTVSS
# modifications: single biotin at the VHH C-terminal (biotinylation signal sequence)
# notes: llama VHH, expressed in E. coli TG1, IMAC purified, monomeric SEC fraction; also called VHH # 20
# B9: hCD221ug-77 (VHH)
# VHH: QVKLEESGGGLVQPGGSLRLSCADSGSIFRIAVMNWYRQAPGKERELVAVITSGGETHYAASVKGRFTISRDNAKNTMYLQMNSLKPEDTAVYYCNAKWGQYEYWGQGTQVTVSS
# modifications: single biotin at the VHH C-terminal (biotinylation signal sequence)
# notes: llama VHH, expressed in E. coli TG1, IMAC purified, monomeric SEC fraction; also called VHH # 8
# B10: hCD221ug-75 (VHH)
# VHH: B9 VHH with D24G, E56D, M82I, W99Y, Q101R, Y102D, T109A
# modifications: single biotin at the VHH C-terminal (biotinylation signal sequence)
# notes: llama VHH, expressed in E. coli TG1, IMAC purified, monomeric SEC fraction; also called VHH # 10
# B11: hCD221ug-87 (VHH)
# VHH: B9 VHH with K3Q, E5V, Q101R, Y102D
# modifications: single biotin at the VHH C-terminal (biotinylation signal sequence)
# notes: llama VHH, expressed in E. coli TG1, IMAC purified, monomeric SEC fraction; also called VHH # 9
# B12: hCD22pas-79 (VHH)
# VHH: QVKLEESGGGLVQPGGSLRLSCTVSGRTSSVYGMAWFRQTPGKEREFVAAMSWSGGPTYFADSVKGRFGSSRDNAKNTVYLQMNGLRPEDTAVYYCAVRIRRTLLEPLTKETLYDYWGQGTQVTVSS
# modifications: single biotin at the VHH C-terminal (biotinylation signal sequence)
# notes: llama VHH, expressed in E. coli TG1, IMAC purified, monomeric SEC fraction; also called VHH # 18
# B13: hCD22pas-33 (VHH)
# VHH: QVKLEESGGGLVQPGGSLRLSCTVSGFTLDSYVMGWFRQAPGKEREAVSCISSSDGVTYYADSVKGRFTISRDNAKNTYLQMNSLKPEDTAIYYCAVDKPFYDGGYLYTCPVDFDSWGQGIQVTVSS
# modifications: single biotin at the VHH C-terminal (biotinylation signal sequence)
# notes: llama VHH, expressed in E. coli TG1, IMAC purified, monomeric SEC fraction; also called VHH # 7
# Molecular target: T1, recombinant extracellular domain of the …
# Assay: SPR, Biacore T200, VHH over immobilized CD22-ECD
# Method: For surface Plasmon resonance, 21 selected VHHs were passed though size exclusion columns, superdex 75 (GE Healthcare), respectively, in 10 mM HEPES, pH 7.4, containing 150 mM NaCl, 3 mM EDTA, monomeric sdAb fractions were collected and protein concentrations were determined by measuring absorbance at 280 nm (A280). Analysis were performed with Biacore T200 instrument (GE Healthcare). All measurements were carried out at 25° C. in 10 mM HEPES, pH 7.4, containing 150 mM NaCl, 3 mM EDTA and 0.005% surfactant P20 (GE Healthcare). Approximately 1919 RUs of the recombinant monomeric CD22-ECD (obtained after SEC purification of the CD22-ECD) were captured on SA sensor chip (GE Healthcare) at a flow rate of 5 uL/min. Various concentration of the monomeric VHHs were injected over CD22-ECD surface, respectively using an SA surface as a reference at a flow rate of 40 µL/min. Surfaces were generated by washing with running buffer. Data were analysed with BIAevaluation 4.1 software.
# The monomeric fraction of all 21 VHHs were used for SPR experiment where the human CD22-ECD was immobilized onto the CM5 dextran chip and various VHH concentration (0.6-400 nM) were passed over the sensor chip. […] All of the data collected fit a 1:1 binding model.
Binder,Kd [nM],koff [s⁻¹],kon [M⁻¹ s⁻¹]
B1,7.7,0.0105,1.36e+06
B2,7.08,0.000655,92500
B3,0.00684,2.1e-05,3.07e+06
B4,2.41,0.000129,53600
B5,0.924,0.000134,145000
B6,19,0.00289,152000
B7,2.78,0.00013,46800
B8,2.75,0.001,365000
B9,4.77,0.00262,550000
B10,0.865,0.00121,1.4e+06
B11,0.647,0.000797,1.23e+06
B12,7.72,0.00397,514000
B13,2.6,0.00014,54000
